Experimental data published in publication PMC6744678.

Target: Flag-CCDC74B wild-type (in HeLa cells) (human)
Assay: cross-linking; HeLa cells expressing Flag-CCDC74B treated with 1 mM disuccinimidyl suberate (DSS) in DMSO for 30 min; anti-Flag Western blot

stoichiometry N: 2
Substance: Flag-CCDC74B wild-type (in HeLa cells) (natural protein)
